The term stoichiometry N denotes the number of molecules, sites or subunits per partner or assembly.

One test concerns the target T1, SV40 VP1 (Betapolyomavirus macacae, UniProt P03087).
T1 construct: recombinant VP1 pentamer, detected with anti-poly-histidine antibody
Description: STD NMR. In kind it is binding. As to conditions: 19-22 µM protein, 1 mM ligand, pH 7.5, 283 K, D2O.

The target of test [1] is BKPyV VP1 pentamer (30-300) S274A/T276A (BK polyomavirus (BKPyV)). Description: SEC; gel filtration of purified mutant pentamers; data not shown.
In test [2] the target is BKPyV VP1 pentamer (30-300) F75V (BK polyomavirus (BKPyV)). Described as above.
Test [3] addresses BKPyV VP1 pentamer (30-300) T276A (BK polyomavirus (BKPyV)). The test is described as above.
For test [4], the target named is BKPyV VP1 pentamer (30-300) S274A (BK polyomavirus (BKPyV)). The test is described as above.
In test [5] the target is BKPyV VP1 pentamer (30-300) H138A (BK polyomavirus (BKPyV)). The test is described as above.
The target in test [6] is BKPyV VP1 pentamer (amino acids 30-300 of BKPyV VP1, His-tag cleaved) (BK polyomavirus (BKPyV)). Description: crystal structure; sitting drop vapor diffusion at 20°C, 16–18% PEG 3,350, 0.1 M HEPES pH 7.5, 0.25 M LiCl, protein with 20 mM DTT; unliganded and soaked with 20 mM GD3 oligosaccharide.
The target of test [7] is BKPyV VP1 pentamer (30-300) F75W (BK polyomavirus (BKPyV)). Description: SEC; gel filtration of purified mutant pentamers; data not shown. In general terms: SEC sorts molecules by how far they enter the pores of the column.
Test [8] deals with BKPyV VP1 pentamer (30-300) L62W (BK polyomavirus (BKPyV)). Described as above.

For `CC(=O)N[C@H]1[C@H](O[C@@H]2[C@H](O[C@]3(C(=O)O)C[C@H](O)[C@@H](NC(C)=O)[C@H]([C@H](O)[C@H](O)CO)O3)[C@@H](O)[C@H](O[C@H]3[C@H](O)[C@@H](O)C(O)O[C@@H]3CO)O[C@@H]2CO)O[C@H](CO)[C@H](O)[C@@H]1O[C@@H]1O[C@H](CO)[C@H](O)[C@H](O)[C@H]1O` (stereo partly drawn) [GM1, GM1 oligosaccharide], at SV40 VP1, the “STD NMR” value is recorded as “as efficient as for the SV40 VP1-GM1 pair, which was included for comparison”.

For the compound “BKPyV VP1 pentamer (30-300) S274A/T276A (domain or fragment)”, the stoichiometry N in test [1] came to 5.

In [2], “BKPyV VP1 pentamer (30-300) F75V (domain or fragment)” returned a stoichiometry N of 5.

In test [3], “BKPyV VP1 pentamer (30-300) T276A (domain or fragment)” gave a stoichiometry N of 5.

“BKPyV VP1 pentamer (30-300) S274A (domain or fragment)” registered a stoichiometry N in [4] of 5.

For the compound “BKPyV VP1 pentamer (30-300) H138A (domain or fragment)”, in [5], the stoichiometry N came out at 5.

In [6], “BKPyV VP1 pentamer (amino acids 30-300 of BKPyV VP1, His-tag cleaved) (domain or fragment)” returned a stoichiometry N of 5.

In test [7], “BKPyV VP1 pentamer (30-300) F75W (domain or fragment)” gave a stoichiometry N of 5.

Regarding “BKPyV VP1 pentamer (30-300) L62W (domain or fragment)”, the stoichiometry N in [8] amounted to 5.

These data come from PMC3795024, “A Structure-Guided Mutation in the Major Capsid Protein Retargets BK Polyomavirus” (PLoS Pathogens, 2013).
